“And” between values parts separate entries of the source, which are not always exact repeats. Identical values can stand only once.
Columns and labels:
CDVV2KP2…2TSTSPTRC = experiment: peptide-array ELISA [Con't]
CG2RL2APLRK2…22SK2C = experiment: peptide-array ELISA [Con't]
2TREQNRI2…2RL = experiment: peptide-array ELISA [Con't]
…2TREQNRIC = experiment: peptide-array ELISA [Con't]
[1] = biological target: CQTAQM22SK2SPGQHCQA2TREQNRI2T2RPC; experiment: peptide-array ELISA [Con't]
[2] = biological target: KQEGCRL2…2…; experiment: peptide-array ELISA [Con't]
[3] = biological target: E2LSCGSR2…; experiment: peptide-array ELISA [Con't]
…2SK2SPGQ = experiment: peptide-array ELISA [Con't]
[4] = biological target: C22SK2…2CAPLRK2…; experiment: peptide-array ELISA [Con't]
[5] = biological target: DI2…; experiment: peptide-array ELISA [Con't]
2LSCGSR2…2T2 = experiment: peptide-array ELISA [Con't]
[6] = biological target: C22SK2…2CNASMDAV2TSTSPTRC; experiment: peptide-array ELISA [Con't]
[7] = biological target: Y2…; experiment: peptide-array ELISA [Con't]
[8] = biological target: LSCGSR2…; experiment: peptide-array ELISA [Con't]
[9] = biological target: 2LS2…2…; experiment: peptide-array ELISA [Con't]
[10] = biological target: C2LS2GSR2…2…; experiment: peptide-array ELISA [Con't]
V2…2NV = experiment: peptide-array ELISA [Con't]
2…2TREQNRIC = experiment: peptide-array ELISA [Con't]
LS2…2…2 = experiment: peptide-array ELISA [Con't]
KQEG2…2APGTFSN = experiment: peptide-array ELISA [Con't]
E2LS2…2…2 = experiment: peptide-array ELISA [Con't]
[11] = biological target: 2…; experiment: peptide-array ELISA [Con't]
CQTAQM22SK2…2RLC = experiment: peptide-array ELISA [Con't]
…2LS2…2TSTSPTRC = experiment: peptide-array ELISA [Con't]
2LSCGSR2…2T = experiment: peptide-array ELISA [Con't]
[12] = biological target: PE2LSCGSR2…; experiment: peptide-array ELISA [Con't]
[13] = biological target: …2…; experiment: peptide-array ELISA [Con't]
S2…2RPGW = experiment: peptide-array ELISA [Con't]
CGSR2…2 = experiment: peptide-array ELISA [Con't]
…2TSTSPTRC = experiment: peptide-array ELISA [Con't]
2LS2…2R = experiment: peptide-array ELISA [Con't]
CTV2DS2…2TSTSPTRC = experiment: peptide-array ELISA [Con't]
…22SK2CNASMDAV2TSTSPTRC = experiment: peptide-array ELISA [Con't]
CTSSTDI2RPHQI2…2TSTSPTRC = experiment: peptide-array ELISA [Con't]
[14] = biological target: CNASMDAV2…2…; experiment: peptide-array ELISA [Con't]
NRI2…2RL = experiment: peptide-array ELISA [Con't]
LS2…2RPG = experiment: peptide-array ELISA
VPE2LS2…2TREQNRIC = experiment: peptide-array ELISA
[15] = biological target: QEGCRL2…; experiment: peptide-array ELISA
S2…2RP = experiment: peptide-array ELISA
2LS2…2RPGW = experiment: peptide-array ELISA
[16] = biological target: LWNWVPE2…; experiment: peptide-array ELISA
…2…2RP = experiment: peptide-array ELISA
LS2…2RP = experiment: peptide-array ELISA
[17] = biological target: CEQNRI2T2RPGWY2…2TSTSPTRC; experiment: peptide-array ELISA
VPE2LS2…2RP = experiment: peptide-array ELISA
VPE2LSCGSR2…2 = experiment: peptide-array ELISA
WNWVPE2…2 = experiment: peptide-array ELISA
LWNWVPE2…2T = experiment: peptide-array ELISA
PE2LS2…2RP = experiment: peptide-array ELISA
E2LS2…2RP = experiment: peptide-array ELISA
2…2RPG = experiment: peptide-array ELISA
2…2RP = experiment: peptide-array ELISA
S2…2RPG = experiment: peptide-array ELISA
…2RP = experiment: peptide-array ELISA
LWNWVPE2…2 = experiment: peptide-array ELISA

LSCGSR2…, sequence (peptide, as listed by the source): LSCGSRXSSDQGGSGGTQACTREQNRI
LWNWVPE2…, sequence (peptide, as listed by the source): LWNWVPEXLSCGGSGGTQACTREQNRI
…2…, sequence (peptide, as listed by the source): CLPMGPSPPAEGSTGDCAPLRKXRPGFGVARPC
…2TREQNRIC, sequence (peptide, as listed by the source): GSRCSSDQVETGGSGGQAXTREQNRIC
DI2…, sequence (peptide, as listed by the source): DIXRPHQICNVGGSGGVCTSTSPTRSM
…2TSTSPTRC, sequence (peptide, as listed by the source): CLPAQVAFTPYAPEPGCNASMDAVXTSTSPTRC
Y2…, sequence (peptide, as listed by the source): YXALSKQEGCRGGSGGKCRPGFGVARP
QEGCRL2…, sequence (peptide, as listed by the source): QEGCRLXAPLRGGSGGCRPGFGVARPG

agonistic TNFR2 antibody MR2-1 showed a Raw luminescence data (CDVV2KP2…2TSTSPTRC) of 191, a Raw luminescence data (CG2RL2APLRK2…22SK2C) of 183 and a Raw luminescence data (2TREQNRI2…2RL) of 186. It also gave a Raw luminescence data (…2TREQNRIC) of 176, a Raw luminescence data [1] of 176 and a Raw luminescence data [2] of 191. The Raw luminescence data [3] was 189, the Raw luminescence data (…2SK2SPGQ) was 181 and 173 and the Raw luminescence data [4] was 191. The Raw luminescence data [5] was 174, the Raw luminescence data (2LSCGSR2…2T2) was 179 and the Raw luminescence data [6] was 181. For the same substance, the Raw luminescence data [7] was 175, the Raw luminescence data [8] was 181 and the Raw luminescence data [9] was 190. It also gave a Raw luminescence data [10] of 187, a Raw luminescence data (V2…2NV) of 177 and a Raw luminescence data (2…2TREQNRIC) of 184. The Raw luminescence data (LS2…2…2) was 187, the Raw luminescence data (KQEG2…2APGTFSN) was 180 and the Raw luminescence data (E2LS2…2…2) was 181. The Raw luminescence data [11] was 179, the Raw luminescence data (CQTAQM22SK2…2RLC) was 179 and the Raw luminescence data (…2LS2…2TSTSPTRC) was 188. For the same substance, the Raw luminescence data (2LSCGSR2…2T) was 176, the Raw luminescence data [12] was 180 and the Raw luminescence data [13] was 180. The Raw luminescence data (S2…2RPGW) was 177, the Raw luminescence data (CGSR2…2) was 172 and the Raw luminescence data (…2TSTSPTRC) was 172. It also gave a Raw luminescence data (2LS2…2R) of 181, a Raw luminescence data (CTV2DS2…2TSTSPTRC) of 182 and a Raw luminescence data (…22SK2CNASMDAV2TSTSPTRC) of 173. It also gave a Raw luminescence data (CTSSTDI2RPHQI2…2TSTSPTRC) of 181, a Raw luminescence data [14] of 173 and a Raw luminescence data (NRI2…2RL) of 184. For the same substance, the Raw luminescence data (LS2…2RPG) was 433, the Raw luminescence data (VPE2LS2…2TREQNRIC) was 399 and the Raw luminescence data [15] was 428. For the same substance, the Raw luminescence data (S2…2RP) was 392, the Raw luminescence data (2LS2…2RPGW) was 366 and the Raw luminescence data [16] was 400. It also gave a Raw luminescence data (…2…2RP) of 459, a Raw luminescence data (LS2…2RP) of 584 and a Raw luminescence data [17] of 413. For the same substance, the Raw luminescence data (VPE2LS2…2RP) was 410, the Raw luminescence data (VPE2LSCGSR2…2) was 365 and the Raw luminescence data (WNWVPE2…2) was 403. It also gave a Raw luminescence data (LWNWVPE2…2T) of 467, a Raw luminescence data (PE2LS2…2RP) of 483 and a Raw luminescence data (E2LS2…2RP) of 418. For the same substance, the Raw luminescence data (2…2RPG) was 389, the Raw luminescence data (2…2RP) was 510 and the Raw luminescence data (S2…2RPG) was 385. For the same substance, the Raw luminescence data (…2RP) was 435 and 433 and the Raw luminescence data (LWNWVPE2…2) was 525.
